Measured values taken from patent publication US20250129168A1.

Experiments:
[1] = target: recombinant human-Dectin-1 mouse Fc fusion (human) (UniProt Q9BXN2); assay: Octet BLI, delta between the two X values
[2] = target: recombinant human-Dectin-1 mouse Fc fusion (human) (UniProt Q9BXN2); assay: Octet BLI, response at X

Binder	delta [1] [%]	X = 340 [2]	X = 470 [2]	X = 290 [2]	X = 350 [2]
2M24A.1.1 hFab (Fab, V domains shown) VH: QVQLVQSGAEVKKPGASVKVSCKSSGYTFTAYYIHWVRQAPGQGLEWMGWINPNSGDTNYAQKFQGRITMTRDTSISTAYLELSRLRSDDTAVFYCARNSGSYSFGYWGQGTLVTVSS VL: DIQMTQSPSSVSASVGDRVTITCRASQGISSWLAWYQQKPGKAPKLLIFGASSLQSGVPSRFSGSGSGTDFTLTVSSLQPEDFATYYCQQAASFPFTFGPGTKVDIE	98	0.305	0.006	–	–
2M24A.1.9 hFab (Fab, V domains shown) VH: QVQLVQSGAEVKKPGASVKVSCKSSGYTFTDYYIHWVRQAPGQGLEWMGWINPNSGDTNYAQKFQGRITMTRDTSISTAYLELSRLRSDDTAVFYCARNSGSASFGYWGQGTLVTVSS VL: DIQMTQSPSSVSASVGDRVTITCRASQGISSWLAWYQQKPGKAPKLLIFGASSLQSGVPSRFSGSGSGTDFTLTVSSLQPEDFATYYCQQAFSFPFTFGPGTKVDIE	100	0.018	0	–	–
2M24A.1.4 hFab (Fab, V domains shown) VH: QVQLVQSGAEVKKPGASVKVSCKSSGYTFTDYYIHWVRQAPGQGLEWMGWINPNSGDTNYAQKFQGRITMTRDTSISTAYLELSRLRSDDTAVFYCARNSGSASFGYWGQGTLVTVSS VL: DIQMTQSPSSVSASVGDRVTITCRASQGISSWLAWYQQKPGKAPKLLIFGASSLQSGVPSRFSGSGSGTDFTLTVSSLQPEDFATYYCQQAASFPFTFGPGTKVDIE	–	0	0	–	–
2M24A.1.2 hFab (Fab, V domains shown) VH: QVQLVQSGAEVKKPGASVKVSCKSSGYTFTDYYIHWVRQAPGQGLEWMGWINPNSGATNYAQKFQGRITMTRDTSISTAYLELSRLRSDDTAVFYCARNSGSYSFGYWGQGTLVTVSS VL: DIQMTQSPSSVSASVGDRVTITCRASQGISSWLAWYQQKPGKAPKLLIFGASSLQSGVPSRFSGSGSGTDFTLTVSSLQPEDFATYYCQQAASFPFTFGPGTKVDIE	98	0.331	0.006	–	–
2M24A.1.8 hFab (Fab, V domains shown) VH: QVQLVQSGAEVKKPGASVKVSCKSSGYTFTDYYIHWVRQAPGQGLEWMGWINPNSGDTNYAQKFQGRITMTRDTSISTAYLELSRLRSDDTAVFYCARASGSYSFGYWGQGTLVTVSS VL: DIQMTQSPSSVSASVGDRVTITCRASQGISSWLAWYQQKPGKAPKLLIFGASSLQSGVPSRFSGSGSGTDFTLTVSSLQPEDFATYYCQQAFSFPFTFGPGTKVDIE	100	0.042	0	–	–
2M24A.1.20 (Fab, V domains shown) VH: QVQLVQSGAEVKKPGASVKVSCKSSGYTFTDYYIHWVRQAPGQGLEWMGWINPNSGDTNYAQKFQGRITMTRDTSISTAYLELSRLRSDDTAVFYCARNSGSYSAGYWGQGTLVTVSS VL: DIQMTQSPSSVSASVGDRVTITCRASQGISSWLAWYQQKPGKAPKLLIFGASSLQSGVPSRFSGSGSGTDFTLTVSSLQPEDFATYYCQQAYSFPFTFGPGTKVDIE	78	–	–	0.0981	0.0215
2M24A.1.17 (Fab, V domains shown) VH: QVQLVQSGAEVKKPGASVKVSCKSSGYTFTDYYIHWVRQAPGQGLEWMGWINPNSGDTNYAQKFQGRITMTRDTSISTAYLELSRLRSDDTAVFYCARNSASYSFGYWGQGTLVTVSS VL: DIQMTQSPSSVSASVGDRVTITCRASQGISSWLAWYQQKPGKAPKLLIFGASSLQSGVPSRFSGSGSGTDFTLTVSSLQPEDFATYYCQQAYSFPFTFGPGTKVDIE	1	–	–	0.131	0.129
2M24A.1.22 (Fab, V domains shown) VH: QVQLVQSGAEVKKPGASVKVSCKSSGYTFTDYYIHWVRQAPGQGLEWMGWINPNSGDTNYAQKFQGRITMTRDTSISTAYLELSRLRSDDTAVFYCARNSGSYSFGAWGQGTLVTVSS VL: DIQMTQSPSSVSASVGDRVTITCRASQGISSWLAWYQQKPGKAPKLLIFGASSLQSGVPSRFSGSGSGTDFTLTVSSLQPEDFATYYCQQAYSFPFTFGPGTKVDIE	15	–	–	0.131	0.112
2M24A.1.16 (Fab, V domains shown) VH: QVQLVQSGAEVKKPGASVKVSCKSSGYTFTDYYIHWVRQAPGQGLEWMGWINPNSGDTNYAQKFQGRITMTRDTSISTAYLELSRLRSDDTAVFYCARNAGSYSFGYWGQGTLVTVSS VL: DIQMTQSPSSVSASVGDRVTITCRASQGISSWLAWYQQKPGKAPKLLIFGASSLQSGVPSRFSGSGSGTDFTLTVSSLQPEDFATYYCQQAYSFPFTFGPGTKVDIE	5	–	–	0.12	0.114
2M24A.1.19 (Fab, V domains shown) VH: QVQLVQSGAEVKKPGASVKVSCKSSGYTFTDYYIHWVRQAPGQGLEWMGWINPNSGDTNYAQKFQGRITMTRDTSISTAYLELSRLRSDDTAVFYCARNSGSYAFGYWGQGTLVTVSS VL: DIQMTQSPSSVSASVGDRVTITCRASQGISSWLAWYQQKPGKAPKLLIFGASSLQSGVPSRFSGSGSGTDFTLTVSSLQPEDFATYYCQQAYSFPFTFGPGTKVDIE	22	–	–	0.126	0.0983
2M24A.1.15 (Fab, V domains shown) VH: QVQLVQSGAEVKKPGASVKVSCKSSGYTFTDYYIHWVRQAPGQGLEWMGWINPNSGDTNYAQKFQGRITMTRDTSISTAYLELSRLRSDDTAVFYCAANSGSYSFGYWGQGTLVTVSS VL: DIQMTQSPSSVSASVGDRVTITCRASQGISSWLAWYQQKPGKAPKLLIFGASSLQSGVPSRFSGSGSGTDFTLTVSSLQPEDFATYYCQQAYSFPFTFGPGTKVDIE	62	–	–	0.082	0.0314
2M24A.1.21 (Fab, V domains shown) VH: QVQLVQSGAEVKKPGASVKVSCKSSGYTFTDYYIHWVRQAPGQGLEWMGWINPNSGDTNYAQKFQGRITMTRDTSISTAYLELSRLRSDDTAVFYCARNSGSYSFAYWGQGTLVTVSS VL: DIQMTQSPSSVSASVGDRVTITCRASQGISSWLAWYQQKPGKAPKLLIFGASSLQSGVPSRFSGSGSGTDFTLTVSSLQPEDFATYYCQQAYSFPFTFGPGTKVDIE	8	–	–	0.125	0.114
2M24A.1.12 hFab (Fab, V domains shown) VH: QVQLVQSGAEVKKPGASVKVSCKSSGYTFTDYYIHWVRQAPGQGLEWMGWINPNSGATNYAQKFQGRITMTRDTSISTAYLELSRLRSDDTAVFYCARNSGSYSFGYWGQGTLVTVSS VL: DIQMTQSPSSVSASVGDRVTITCRASQGISSWLAWYQQKPGKAPKLLIFGASSLQSGVPSRFSGSGSGTDFTLTVSSLQPEDFATYYCQQAYSFPFTFGPGTKVDIE	19	0.49	0.399	–	–

Further lines, results first:

delta [1] [%]	X = 340 [2]	X = 470 [2]	X = 290 [2]	X = 350 [2]	Binder
–	0	0	–	–	2M24A.1.3 hFab (Fab, V domains shown) VH: QVQLVQSGAEVKKPGASVKVSCKSSGYTFTDYYIHWVRQAPGQGLEWMGWINPNSGDTNYAQKFQGRITMTRDTSISTAYLELSRLRSDDTAVFYCARASGSYSFGYWGQGTLVTVSS VL: DIQMTQSPSSVSASVGDRVTITCRASQGISSWLAWYQQKPGKAPKLLIFGASSLQSGVPSRFSGSGSGTDFTLTVSSLQPEDFATYYCQQAASFPFTFGPGTKVDIE
16	0.499	0.418	–	–	2M24A.1.11 hFab (Fab, V domains shown) VH: QVQLVQSGAEVKKPGASVKVSCKSSGYTFTAYYIHWVRQAPGQGLEWMGWINPNSGDTNYAQKFQGRITMTRDTSISTAYLELSRLRSDDTAVFYCARNSGSYSFGYWGQGTLVTVSS VL: DIQMTQSPSSVSASVGDRVTITCRASQGISSWLAWYQQKPGKAPKLLIFGASSLQSGVPSRFSGSGSGTDFTLTVSSLQPEDFATYYCQQAYSFPFTFGPGTKVDIE
100	0.028	0	–	–	2M24A.1.13 hFab (Fab, V domains shown) VH: QVQLVQSGAEVKKPGASVKVSCKSSGYTFTDYYIHWVRQAPGQGLEWMGWINPNSGDTNYAQKFQGRITMTRDTSISTAYLELSRLRSDDTAVFYCARASGSYSFGYWGQGTLVTVSS VL: DIQMTQSPSSVSASVGDRVTITCRASQGISSWLAWYQQKPGKAPKLLIFGASSLQSGVPSRFSGSGSGTDFTLTVSSLQPEDFATYYCQQAYSFPFTFGPGTKVDIE
21	0.493	0.39	–	–	2M24A.1.6 hFab (Fab, V domains shown) VH: QVQLVQSGAEVKKPGASVKVSCKSSGYTFTAYYIHWVRQAPGQGLEWMGWINPNSGDTNYAQKFQGRITMTRDTSISTAYLELSRLRSDDTAVFYCARNSGSYSFGYWGQGTLVTVSS VL: DIQMTQSPSSVSASVGDRVTITCRASQGISSWLAWYQQKPGKAPKLLIFGASSLQSGVPSRFSGSGSGTDFTLTVSSLQPEDFATYYCQQAFSFPFTFGPGTKVDIE
9	–	–	0.138	0.124	2M24A.1.18 (Fab, V domains shown) VH: QVQLVQSGAEVKKPGASVKVSCKSSGYTFTDYYIHWVRQAPGQGLEWMGWINPNSGDTNYAQKFQGRITMTRDTSISTAYLELSRLRSDDTAVFYCARNSGAYSFGYWGQGTLVTVSS VL: DIQMTQSPSSVSASVGDRVTITCRASQGISSWLAWYQQKPGKAPKLLIFGASSLQSGVPSRFSGSGSGTDFTLTVSSLQPEDFATYYCQQAYSFPFTFGPGTKVDIE
22	0.51	0.398	–	–	2M24A.1.7 hFab (Fab, V domains shown) VH: QVQLVQSGAEVKKPGASVKVSCKSSGYTFTDYYIHWVRQAPGQGLEWMGWINPNSGATNYAQKFQGRITMTRDTSISTAYLELSRLRSDDTAVFYCARNSGSYSFGYWGQGTLVTVSS VL: DIQMTQSPSSVSASVGDRVTITCRASQGISSWLAWYQQKPGKAPKLLIFGASSLQSGVPSRFSGSGSGTDFTLTVSSLQPEDFATYYCQQAFSFPFTFGPGTKVDIE
100	0.106	0	–	–	2M24A.1.14 hFab (Fab, V domains shown) VH: QVQLVQSGAEVKKPGASVKVSCKSSGYTFTDYYIHWVRQAPGQGLEWMGWINPNSGDTNYAQKFQGRITMTRDTSISTAYLELSRLRSDDTAVFYCARNSGSASFGYWGQGTLVTVSS VL: DIQMTQSPSSVSASVGDRVTITCRASQGISSWLAWYQQKPGKAPKLLIFGASSLQSGVPSRFSGSGSGTDFTLTVSSLQPEDFATYYCQQAYSFPFTFGPGTKVDIE
